Test results: the supplement of paper PMC9732359
± gives the uncertainty stated by the source.

Test: protein stability index of a GFP-peptide fusion (yeast GPS) (PSI 1-4); higher = more stable; sorted into four equal gates, so the index is relative within each strain
Outline: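 Sequencing reads from sorted gates were used to score each peptide. The library consisted of tiled 17-residue yeast protein peptides fused downstream of GFP on a Cherry-expressing plasmid, pooled and carried in yeast. Mid-log cultures in leucine-free medium were split into four equal gates by GFP/Cherry ratio, and each gate's plasmids were PCR-amplified and Illumina-sequenced. The protein stability index adds up, over all gates, the read frequency multiplied by the gate number.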

Sequence | protein stability index (doa10∆) | protein stability index (pdr5∆) | protein stability index (san1∆) | protein stability index (ubr1∆)
TVKTNDELMVIYISNLV [RPN8] | 1.66 ± 0.12 | 1.5 ± 0.063 | 1.51 ± 0.15 | 1.29 ± 0.078
AKGLVAYHQKYVDEQSK [RPS16A] | 2.03 ± 0.085 | 2.12 ± 0.056 | 2.52 ± 0.089 | 1.11 ± 0.034
RLLITGTPLQNNLHELW [ISW2] | 2.68 ± 0.066 | 2.61 ± 0.076 | 2.99 ± 0.062 | 2.83 ± 0.064
TSNNETNNGNDDNETEN [GRR1] | 3.03 ± 0.074 | 3.28 ± 0.077 | 3.14 ± 0.053 | 2.92 ± 0.055
EPIDQNTGIVSSTTGMS [RPT3] | 3.15 ± 0.11 | 2.65 ± 0.22 | 3.39 ± 0.14 | 3.24 ± 0.089
SKEKANFLETIASTEKP [SIR4] | 2.26 ± 0.069 | 2.28 ± 0.055 | 2.04 ± 0.1 | 2.64 ± 0.058
ELENNEFTENELNVDSM [ITC1] | 3.38 ± 0.07 | 3.21 ± 0.073 | 3.33 ± 0.065 | 3.27 ± 0.069
DISAMQPVNPKPFLKGL [SMX3] | 3.12 ± 0.067 | 3.18 ± 0.068 | 3.2 ± 0.051 | 3.22 ± 0.053
DQQSPWLLRLELDRAAM [RPO21] | 1.49 ± 0.22 | 1.83 ± 0.14 | 1.93 ± 0.13 | 2.66 ± 0.1
LMEIHNILKVDSNSSSS [RGR1] | 2.58 ± 0.06 | 2.67 ± 0.06 | 2.63 ± 0.064 | 2.42 ± 0.049
TCSSDQHIKVFKLDKDT [YGL100W/SEH1] | 3 ± 0.098 | 3.07 ± 0.087 | 3.46 ± 0.087 | 3.43 ± 0.097
KALPIRRDDEVLVVRGS [RPL26A] | 3.06 ± 0.18 | 3.05 ± 0.12 | 3.23 ± 0.13 | 3.32 ± 0.15
ELLREWLETYSENRDKF [IRR1] | 3.34 ± 0.066 | 3.43 ± 0.098 | 3.61 ± 0.078 | 3.51 ± 0.056
LSAVAQAESMKFKLLNG [RPS3] | 3.06 ± 0.1 | 3.21 ± 0.1 | 2.83 ± 0.12 | 3.09 ± 0.079
AIDYEPEYEKAMQYVCG [SMC1] |  |  | 2.8 ± 0.13 | 2.44 ± 0.11
FQLPTTCVSMAPIQLKI [RGR1] | 1.3 ± 0.051 | 1.76 ± 0.055 | 1.78 ± 0.06 | 1.67 ± 0.039
GQHKNNTSLNINGWKFE [SWP82] | 3.09 ± 0.075 | 3.21 ± 0.074 | 3.05 ± 0.063 | 2.99 ± 0.077
DTNNEADLMALENATWT [SNF12] | 2.58 ± 0.074 | 3.18 ± 0.11 | 2.64 ± 0.087 | 2.94 ± 0.09
AMSLYHSPFPFNRTKGK [PRP8] | 2.11 ± 0.04 | 2.08 ± 0.047 | 1.65 ± 0.07 | 1.98 ± 0.03
NYDCKVISIVGGHSLEE [PRP28] | 2.93 ± 0.055 | 2.91 ± 0.059 | 2.88 ± 0.042 | 2.83 ± 0.041
KIALGSPIVNVLEDVYR [RRI2] | 2.17 ± 0.15 | 2.96 ± 0.15 | 2.31 ± 0.15 | 2.77 ± 0.098
LLGKDNEDDALIYGISD [AAR2] | 3.22 ± 0.12 | 3.14 ± 0.14 | 3.11 ± 0.1 | 2.7 ± 0.14
ANLPANSSTSPAPSIPS [YLR335W/NUP2] | 2.94 ± 0.037 | 3.1 ± 0.037 | 2.95 ± 0.03 | 2.856 ± 0.027
HDELDMNECIADQDMED [ESC2] | 3.22 ± 0.092 | 2.64 ± 0.11 | 2.87 ± 0.07 | 2.97 ± 0.074
LGVPRIKEIINASKVIS [RPO31] | 3.03 ± 0.1 | 2.59 ± 0.2 | 1.49 ± 0.12 | 1.71 ± 0.24
RRILAAAAAAAAAVSGN [SSN3] | 1.41 ± 0.12 | 1.26 ± 0.1 | 1.06 ± 0.26 | 1.59 ± 0.094
KGDGMTSAVASIGSIYQ [RPN1] | 2.67 ± 0.28 | 3.14 ± 0.2 | 2.57 ± 0.23 | 3.03 ± 0.14

Sequence | protein stability index (doa10∆) | protein stability index (pdr5∆) | protein stability index (san1∆) | protein stability index (ubr1∆)
MTIDLEPIEESSQNNSE [IRR1] | 2.94 ± 0.068 | 3.14 ± 0.056 | 2.67 ± 0.11 | 3.09 ± 0.059
FIYDTEKNGGLGWDLDA [FAS2] | 3.21 ± 0.088 | 2.96 ± 0.12 | 3.31 ± 0.051 | 2.52 ± 0.054
QILENYNALFQQNIKFR [YJL039C/NUP192] | 2.73 ± 0.075 | 2.79 ± 0.065 | 2.86 ± 0.036 | 3.04 ± 0.054
VKSLVDNMITGVTKGYK [RPL9A] | 2.75 ± 0.081 | 3.31 ± 0.14 | 2.92 ± 0.25 | 3.11 ± 0.073
MKRADKFKDMGIRAPKG [RPT5] | 2.89 ± 0.1 | 3.38 ± 0.16 | 2.98 ± 0.13 | 3.3 ± 0.12
HALYLAPSGIRMHLAPA [SSN2] | 1.32 ± 0.085 | 2.05 ± 0.085 | 2.09 ± 0.13 | 2.04 ± 0.061
GNSESKVEKGVNIEPFN [LIN1] | 3.7 ± 0.13 | 3.67 ± 0.17 | 3.46 ± 0.08 | 3.13 ± 0.079
MAAEKILTPESQLKKSK [RPL7A] | 3.07 ± 0.11 | 3.28 ± 0.28 | 3.25 ± 0.2 | 
VPPPPVRPSISFNESQR [RPO21] | 2.47 ± 0.037 | 2.78 ± 0.036 | 2.62 ± 0.039 | 2.45 ± 0.034
YSPSNEISISFDVNNID [YDL116W/NUP84] | 2.4 ± 0.095 | 2.62 ± 0.071 | 2.31 ± 0.12 | 2.58 ± 0.067
EPVKEYTFKTSMRVKPS [YMR129W/POM152] | 3.31 ± 0.15 | 3.08 ± 0.13 | 3.04 ± 0.13 | 3.48 ± 0.16
IRNIVEAAAVRDLSEAS [RPS26A] | 2.07 ± 0.066 | 2.39 ± 0.082 | 2.39 ± 0.079 | 2.49 ± 0.077
NIKLLNNRMGSYDCTGV [POP1] | 2.85 ± 0.078 | 2.8 ± 0.059 | 2.83 ± 0.071 | 3 ± 0.042
QRQYKVQLLLHINSILL [SNF11] | 1.88 ± 0.082 | 1.84 ± 0.061 | 1.89 ± 0.098 | 1.96 ± 0.057
VPVRKFKGNNGVVVLRD [RPN2] |  | 2.88 ± 0.18 |  | 
NKLSSILQNEHDYWNKI [SRB4] | 2.37 ± 0.069 | 2.41 ± 0.05 | 2.25 ± 0.099 | 2.47 ± 0.043
LQKQMGIGSLTDLMSIV [RPC34] | 1.91 ± 0.11 | 2.04 ± 0.13 | 2.68 ± 0.12 | 1.86 ± 0.14
LQVLKRERDGIKEDIEK [SMC1] | 3.06 ± 0.23 | 2.85 ± 0.12 | 3.15 ± 0.066 | 2.75 ± 0.23
APPLENENSNCLLSIPK [YML103C/NUP188] | 1.86 ± 0.058 | 1.92 ± 0.057 | 1.65 ± 0.16 | 1.71 ± 0.059
SALTSPTDSSKILQKRS [SIR3] | 2.99 ± 0.053 | 3.12 ± 0.054 | 2.92 ± 0.047 | 3.04 ± 0.039
YEAGASHGNPVVDFLKR [FAS1] | 3.17 ± 0.09 | 3.13 ± 0.099 | 3.35 ± 0.07 | 3.25 ± 0.044
VYDIMALEDEERDEILT [BRR2] | 3.15 ± 0.16 | 3.28 ± 0.15 | 3.08 ± 0.078 | 3.39 ± 0.096
LPLFYDLLNAASIESAD [IRR1] | 2.08 ± 0.047 | 2.17 ± 0.056 | 2.27 ± 0.047 | 2.78 ± 0.048
FGINTNTTKTADTKAPT [YLR335W/NUP2] | 3.4 ± 0.085 | 3.41 ± 0.073 | 3.19 ± 0.07 | 3.5 ± 0.048
KKFNMGKEFEARNLIED [RPC53] | 2.81 ± 0.11 | 2.72 ± 0.087 | 3.04 ± 0.083 | 2.56 ± 0.14
EYNEDSRLCTPIPVQGE [RPN13] |  |  | 2.27 ± 0.14 | 3.11 ± 0.28
